Measured values taken from US20230295258A1 (KANAPH THERAPEUTICS, published 2023).

B1: T1.02 (anti-hu FAP/hu IL-12 mut1, hu IgG1 DANG) (bispecific antibody)
heavy: QVQLVQSGAEVKKPGASVKVSCKTSRYTFTEYTIHWVRQAPGQRLEWIGGINPNNGIPNYNQKFKGRVTITVDTSASTAYMELSSLRSEDTAVYYCARRRIAYGYDEGHAMDYWGQGTLVTVSSASTKGPSVFPLAPSSKSTSGGTAALGCLVKDYFPEPVTVSWNSGALTSGVHTFPAVLQSSGLYSLSSVVTVPSSSLGTQTYICNVNHKPSNTKVDKKVEPKSCDKTHTCPPCPAPELLGGPSVFLFPPKPKDTLMISRTPEVTCVVVAVSHEDPEVKFNWYVDGVEVHNAKTKPREEQYGSTYRVVSVLTVLHQDWLNGKEYKCKVSNKALPAPIEKTISKAKGQPREPQVYTLPPSRDELTKNQVSLWCLVKGFYPSDIAVEWESNGQPENNYKTTPPVLDSDGSFFLYSKLTVDKSRWQQGNVFSCSVMHEALHNHYTQKSLSLSPGK
light: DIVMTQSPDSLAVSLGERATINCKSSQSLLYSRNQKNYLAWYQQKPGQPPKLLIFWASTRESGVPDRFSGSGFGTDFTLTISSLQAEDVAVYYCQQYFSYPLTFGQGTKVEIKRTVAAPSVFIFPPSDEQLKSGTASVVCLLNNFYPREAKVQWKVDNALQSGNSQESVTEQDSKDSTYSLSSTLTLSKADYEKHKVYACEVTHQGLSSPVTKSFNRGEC
chain: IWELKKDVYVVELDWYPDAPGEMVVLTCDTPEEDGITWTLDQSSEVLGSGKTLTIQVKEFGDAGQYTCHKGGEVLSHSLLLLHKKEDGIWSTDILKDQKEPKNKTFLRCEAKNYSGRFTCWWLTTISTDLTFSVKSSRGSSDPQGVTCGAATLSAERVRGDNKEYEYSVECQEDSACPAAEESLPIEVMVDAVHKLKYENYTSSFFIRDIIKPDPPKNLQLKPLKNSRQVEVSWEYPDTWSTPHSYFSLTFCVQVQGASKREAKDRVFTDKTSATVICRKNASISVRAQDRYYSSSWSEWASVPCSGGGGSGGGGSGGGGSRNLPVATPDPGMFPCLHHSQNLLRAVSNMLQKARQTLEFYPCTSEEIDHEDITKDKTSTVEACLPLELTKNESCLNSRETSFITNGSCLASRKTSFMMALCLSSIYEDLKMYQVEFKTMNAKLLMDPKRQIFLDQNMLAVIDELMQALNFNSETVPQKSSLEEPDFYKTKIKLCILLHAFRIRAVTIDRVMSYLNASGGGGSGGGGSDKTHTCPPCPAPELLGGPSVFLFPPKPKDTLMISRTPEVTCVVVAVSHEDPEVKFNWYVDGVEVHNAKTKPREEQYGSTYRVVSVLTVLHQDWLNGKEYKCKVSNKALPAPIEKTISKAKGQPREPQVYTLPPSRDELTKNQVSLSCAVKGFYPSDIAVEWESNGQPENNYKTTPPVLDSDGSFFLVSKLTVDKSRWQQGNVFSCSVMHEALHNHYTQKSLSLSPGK
B2: T1.01 (anti-hu FAP/hu IL-12, hu IgG1 DANG) (bispecific antibody)
heavy: B1 heavy
light: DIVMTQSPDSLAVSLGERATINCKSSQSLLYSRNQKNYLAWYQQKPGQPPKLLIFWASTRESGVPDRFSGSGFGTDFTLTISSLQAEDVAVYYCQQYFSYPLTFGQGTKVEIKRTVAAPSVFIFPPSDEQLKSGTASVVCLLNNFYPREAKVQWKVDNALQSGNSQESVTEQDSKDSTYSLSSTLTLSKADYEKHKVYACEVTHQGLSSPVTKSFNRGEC
chain: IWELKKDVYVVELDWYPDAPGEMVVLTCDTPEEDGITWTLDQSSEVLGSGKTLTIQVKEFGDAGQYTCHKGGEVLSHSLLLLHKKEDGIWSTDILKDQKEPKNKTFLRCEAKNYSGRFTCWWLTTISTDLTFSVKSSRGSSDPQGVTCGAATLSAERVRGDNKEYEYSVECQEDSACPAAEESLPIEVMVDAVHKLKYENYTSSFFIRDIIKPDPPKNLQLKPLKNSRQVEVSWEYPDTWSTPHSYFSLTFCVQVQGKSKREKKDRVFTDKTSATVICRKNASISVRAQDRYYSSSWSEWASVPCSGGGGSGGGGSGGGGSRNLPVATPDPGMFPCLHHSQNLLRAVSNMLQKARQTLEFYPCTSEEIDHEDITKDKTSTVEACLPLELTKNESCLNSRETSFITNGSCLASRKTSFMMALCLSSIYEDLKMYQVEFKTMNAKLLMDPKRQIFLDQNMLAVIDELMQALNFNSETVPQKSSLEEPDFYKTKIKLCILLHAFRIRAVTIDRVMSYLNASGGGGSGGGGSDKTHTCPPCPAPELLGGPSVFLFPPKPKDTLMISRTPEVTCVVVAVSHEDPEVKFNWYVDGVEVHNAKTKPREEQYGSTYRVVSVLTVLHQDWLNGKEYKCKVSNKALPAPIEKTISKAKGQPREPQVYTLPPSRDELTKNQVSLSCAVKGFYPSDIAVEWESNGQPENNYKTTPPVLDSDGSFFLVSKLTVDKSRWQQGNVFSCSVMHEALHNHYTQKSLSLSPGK
B3: T1.03 (anti-hu FAP/hu IL-12 mut2, hu IgG1 DANG) (bispecific antibody)
heavy: B1 heavy
light: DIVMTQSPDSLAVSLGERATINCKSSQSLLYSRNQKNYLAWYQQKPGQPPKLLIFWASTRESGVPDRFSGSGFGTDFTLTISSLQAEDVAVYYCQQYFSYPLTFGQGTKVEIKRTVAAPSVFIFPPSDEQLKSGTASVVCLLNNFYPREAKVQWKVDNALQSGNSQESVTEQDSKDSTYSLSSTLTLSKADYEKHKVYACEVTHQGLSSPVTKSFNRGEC
chain: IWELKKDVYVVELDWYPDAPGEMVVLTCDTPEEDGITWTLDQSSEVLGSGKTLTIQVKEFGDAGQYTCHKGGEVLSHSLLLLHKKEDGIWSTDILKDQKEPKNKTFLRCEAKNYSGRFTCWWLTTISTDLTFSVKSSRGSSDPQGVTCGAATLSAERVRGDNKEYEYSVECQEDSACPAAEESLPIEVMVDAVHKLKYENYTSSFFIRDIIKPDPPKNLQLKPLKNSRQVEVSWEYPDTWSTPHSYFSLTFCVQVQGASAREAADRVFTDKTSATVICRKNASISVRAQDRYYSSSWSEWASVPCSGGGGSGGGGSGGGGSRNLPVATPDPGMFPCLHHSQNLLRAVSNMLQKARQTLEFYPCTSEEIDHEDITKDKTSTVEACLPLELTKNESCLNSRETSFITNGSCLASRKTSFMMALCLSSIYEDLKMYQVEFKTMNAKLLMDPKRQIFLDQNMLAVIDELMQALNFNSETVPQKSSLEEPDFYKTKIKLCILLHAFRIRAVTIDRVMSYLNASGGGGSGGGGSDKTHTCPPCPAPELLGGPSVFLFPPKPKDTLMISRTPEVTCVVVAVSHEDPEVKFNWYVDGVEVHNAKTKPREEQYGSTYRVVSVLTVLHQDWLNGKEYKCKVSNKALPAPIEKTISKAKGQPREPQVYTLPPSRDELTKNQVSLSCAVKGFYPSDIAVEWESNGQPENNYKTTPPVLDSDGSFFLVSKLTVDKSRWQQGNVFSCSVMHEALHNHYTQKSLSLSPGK

Target: IL-12 receptor of human T cells (human, UniProt P42701 24-662; Q99665 24-862)
Test: cell-based or functional assay

IL-12 receptor of human T cells, sequence (Q99665 24-862, chain 2 of 2, other chains not shown): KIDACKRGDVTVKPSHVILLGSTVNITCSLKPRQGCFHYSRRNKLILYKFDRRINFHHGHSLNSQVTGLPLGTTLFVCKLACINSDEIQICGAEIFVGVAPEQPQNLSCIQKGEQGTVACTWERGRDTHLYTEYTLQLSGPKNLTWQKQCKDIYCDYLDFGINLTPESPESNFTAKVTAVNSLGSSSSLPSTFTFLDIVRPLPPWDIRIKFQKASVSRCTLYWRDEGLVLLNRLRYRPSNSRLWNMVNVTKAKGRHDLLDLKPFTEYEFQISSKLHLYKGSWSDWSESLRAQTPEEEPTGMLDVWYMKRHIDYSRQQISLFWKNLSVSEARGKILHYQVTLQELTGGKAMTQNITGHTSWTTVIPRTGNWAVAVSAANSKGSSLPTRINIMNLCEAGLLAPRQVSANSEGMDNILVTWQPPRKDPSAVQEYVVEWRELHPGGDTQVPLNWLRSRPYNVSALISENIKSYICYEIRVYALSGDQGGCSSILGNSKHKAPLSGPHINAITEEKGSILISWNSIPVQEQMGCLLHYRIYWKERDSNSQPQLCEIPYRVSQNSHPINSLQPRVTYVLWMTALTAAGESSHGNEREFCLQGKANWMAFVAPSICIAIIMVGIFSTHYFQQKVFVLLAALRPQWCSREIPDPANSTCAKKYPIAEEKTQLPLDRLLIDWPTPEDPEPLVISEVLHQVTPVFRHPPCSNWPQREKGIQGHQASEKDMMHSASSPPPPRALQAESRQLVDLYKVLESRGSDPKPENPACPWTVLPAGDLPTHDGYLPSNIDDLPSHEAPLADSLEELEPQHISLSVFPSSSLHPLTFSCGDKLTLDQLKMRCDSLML

| Binder | change of the p-STAT4 EC50 in human T cells with low molecular weight heparin against without [times] | half maximal effective concentration (EC50) of p-STAT4 (Tyr693) in activated human T cells, AlphaLISA [pM] |
| --- | --- | --- |
| B1 | 5.5 | 56.5 |
| B2 | 9.4 | 14.5 |
| B3 | 4 | 147 |
